# From US20260226179A1 (MAB DESIGNS, published 2026)
# Several values for one entry are separate records, joined by “and”; a condition that tells them apart may be missing. Equal entries are not always repeated.
# T1: human soluble IL-6R (human, UniProt P08887 20-357)
# T1 sequence: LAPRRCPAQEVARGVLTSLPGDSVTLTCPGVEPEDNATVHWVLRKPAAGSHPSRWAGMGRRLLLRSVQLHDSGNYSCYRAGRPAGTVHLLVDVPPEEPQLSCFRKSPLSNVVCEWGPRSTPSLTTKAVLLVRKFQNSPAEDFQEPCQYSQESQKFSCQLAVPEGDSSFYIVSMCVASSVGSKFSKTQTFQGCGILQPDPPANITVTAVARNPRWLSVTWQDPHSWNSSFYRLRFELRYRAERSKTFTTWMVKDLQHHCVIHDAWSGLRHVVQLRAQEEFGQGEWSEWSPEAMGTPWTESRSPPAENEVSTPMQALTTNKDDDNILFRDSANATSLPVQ
# T2: human membrane-bound IL-6R subunit alpha (human, UniProt P08887 20-468)
# T2 sequence: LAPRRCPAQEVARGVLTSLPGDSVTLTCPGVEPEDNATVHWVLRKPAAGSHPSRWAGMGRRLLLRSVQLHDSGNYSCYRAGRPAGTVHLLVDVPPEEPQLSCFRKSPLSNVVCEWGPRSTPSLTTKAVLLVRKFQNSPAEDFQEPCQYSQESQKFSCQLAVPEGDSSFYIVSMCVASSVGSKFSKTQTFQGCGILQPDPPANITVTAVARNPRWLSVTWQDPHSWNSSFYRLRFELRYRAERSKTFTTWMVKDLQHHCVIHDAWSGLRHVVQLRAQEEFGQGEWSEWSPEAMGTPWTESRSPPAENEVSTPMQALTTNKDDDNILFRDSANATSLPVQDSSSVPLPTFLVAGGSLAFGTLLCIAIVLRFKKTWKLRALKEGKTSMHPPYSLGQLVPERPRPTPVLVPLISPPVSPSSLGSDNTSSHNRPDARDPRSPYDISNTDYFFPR
# T3: human soluble IL-6R (human, UniProt P08887 20-357, limits assumed)
# T3 sequence: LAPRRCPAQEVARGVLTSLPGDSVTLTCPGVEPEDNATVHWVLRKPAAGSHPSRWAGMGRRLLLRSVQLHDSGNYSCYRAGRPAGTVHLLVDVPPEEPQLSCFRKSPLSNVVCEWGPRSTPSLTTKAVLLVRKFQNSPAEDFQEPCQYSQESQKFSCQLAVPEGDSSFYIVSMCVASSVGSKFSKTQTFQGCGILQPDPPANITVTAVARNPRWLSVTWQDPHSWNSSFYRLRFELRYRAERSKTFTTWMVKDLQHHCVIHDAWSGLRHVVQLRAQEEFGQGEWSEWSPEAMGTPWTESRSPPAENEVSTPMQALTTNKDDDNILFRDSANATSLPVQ
# T4: human membrane-bound IL-6R subunit alpha (human, UniProt P08887 20-468)
# T4 sequence: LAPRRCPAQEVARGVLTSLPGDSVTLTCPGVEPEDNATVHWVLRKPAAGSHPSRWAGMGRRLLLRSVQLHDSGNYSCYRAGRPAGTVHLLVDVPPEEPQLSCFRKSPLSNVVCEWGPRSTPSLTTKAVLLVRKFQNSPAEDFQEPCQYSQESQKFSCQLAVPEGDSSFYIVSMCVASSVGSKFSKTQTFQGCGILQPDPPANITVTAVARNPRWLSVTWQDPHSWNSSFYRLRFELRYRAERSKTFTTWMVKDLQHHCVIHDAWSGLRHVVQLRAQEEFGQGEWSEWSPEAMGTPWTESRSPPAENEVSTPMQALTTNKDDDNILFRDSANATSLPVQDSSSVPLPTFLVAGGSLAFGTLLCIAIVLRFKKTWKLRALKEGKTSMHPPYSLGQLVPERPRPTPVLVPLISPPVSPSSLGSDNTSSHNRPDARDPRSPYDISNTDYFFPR
# T5: mouse membrane-bound IL-6R subunit alpha (mouse, UniProt P22272 20-460)
# T5 sequence: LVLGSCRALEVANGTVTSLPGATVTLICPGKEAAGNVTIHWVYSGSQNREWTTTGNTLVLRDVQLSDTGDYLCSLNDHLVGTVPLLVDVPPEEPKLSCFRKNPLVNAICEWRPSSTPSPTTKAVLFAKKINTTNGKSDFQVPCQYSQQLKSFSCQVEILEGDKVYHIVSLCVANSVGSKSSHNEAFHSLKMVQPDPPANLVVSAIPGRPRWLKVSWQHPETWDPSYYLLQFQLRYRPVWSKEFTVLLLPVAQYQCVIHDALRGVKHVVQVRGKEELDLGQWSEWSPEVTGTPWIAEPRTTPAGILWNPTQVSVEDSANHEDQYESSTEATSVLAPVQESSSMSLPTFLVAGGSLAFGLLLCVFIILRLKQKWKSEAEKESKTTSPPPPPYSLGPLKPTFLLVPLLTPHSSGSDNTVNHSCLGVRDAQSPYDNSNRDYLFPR
# T6: murine soluble IL-6R (mouse, UniProt P22272 20-347, limits assumed)
# T6 sequence: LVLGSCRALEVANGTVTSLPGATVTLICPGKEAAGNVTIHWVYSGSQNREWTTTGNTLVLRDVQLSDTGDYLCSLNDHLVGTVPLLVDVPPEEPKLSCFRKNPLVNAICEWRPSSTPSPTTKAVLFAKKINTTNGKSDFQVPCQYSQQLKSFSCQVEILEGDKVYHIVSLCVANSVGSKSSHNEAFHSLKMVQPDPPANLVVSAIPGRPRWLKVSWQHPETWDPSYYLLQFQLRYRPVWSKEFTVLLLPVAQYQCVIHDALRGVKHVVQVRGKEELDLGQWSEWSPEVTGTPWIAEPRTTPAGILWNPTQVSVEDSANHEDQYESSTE
# Key:
# Experiment in all cases: cell-based or functional assay
# [1] = target: T1, human soluble IL-6R
# [2] = target: T2, human membrane-bound IL-6R subunit alpha
# [3] = target: T1, human soluble IL-6R; remark: listed apart in the source
# [4] = target: T1, human soluble IL-6R; remark: listed apart in the source
# [5] = target: T2, human membrane-bound IL-6R subunit alpha; remark: listed apart in the source
# [6] = target: T3, human soluble IL-6R
# [7] = target: Hyper-IL-6 (recombinant fusion protein consisting of IL-6 and soluble IL-6R)
# [8] = target: T4, human membrane-bound IL-6R subunit alpha; remark: listed apart in the source
# [9] = target: T4, human membrane-bound IL-6R subunit alpha; remark: listed apart in the source
# [10] = target: T4, human membrane-bound IL-6R subunit alpha; remark: listed apart in the source
# [11] = target: T5, mouse membrane-bound IL-6R subunit alpha
# [12] = target: T6, murine soluble IL-6R
# [13] = target: T5, mouse membrane-bound IL-6R subunit alpha; remark: listed apart in the source
# [14] = target: T3, human soluble IL-6R; remark: listed apart in the source
# [15] = target: T4, human membrane-bound IL-6R subunit alpha; remark: listed apart in the source
# [16] = target: T4, human membrane-bound IL-6R subunit alpha; remark: listed apart in the source
"Proliferation in % (Ba/F3_gp130 cells, IL-6 + sIL-6R = 100%; IL-6 trans signalling; 1% PE) [1] [%]","Proliferation in % (Ba/F3_gp130_IL-6R cells, IL-6 + sIL-6R = 100%; combined IL-6 classical and trans signalling; 1% PE) [2] [%]",Classical:trans signalling ratio proliferation [3] [ratio],Classical:trans signalling ratio intracellular signalling [4] [ratio],Residual STAT3 phosphorylation in HEK293 (IL-6 + sIL-6R; IL-6 trans signalling; 1% PE) [4] [%],Residual STAT3 phosphorylation in HEK293_IL-6R (IL-6 + sIL-6R; combined classical and trans signalling; 1% PE) [5] [%],IC50 of inhibition of proliferation of Ba/F3_gp130 cells induced by 10 ng/ml IL-6 and 200 ng/ml sIL-6R [6],IC50 of inhibition of proliferation of Ba/F3_gp130 cells induced by 28 ng/ml Hy-IL-6 [7],"Proliferation in % of Ba/F3_gp130_IL-6R cells (10 ng/ml IL-6 = 100%), IgG at 1 µg/ml [8] [%]","Proliferation in % of Ba/F3_gp130_IL-6R cells (10 ng/ml IL-6 = 100%), IgG at 10 µg/ml [8] [%]","Proliferation in % of Ba/F3_gp130_IL-6R cells with 10 ng/ml IL-6 and 200 ng/ml sIL-6R (mixed signalling), IgG at 1 µg/ml [9] [%]","Proliferation in % of Ba/F3_gp130_IL-6R cells with 10 ng/ml IL-6 and 200 ng/ml sIL-6R (mixed signalling), IgG at 10 µg/ml [9] [%]",IC50 for inhibition of IL-6 classical signalling-induced proliferation [10] [nM],"Proliferation in % of Ba/F3_gp130_muIL-6R cells (10 ng/ml murine IL-6 = 100%), IgG at 10 µg/ml [11] [%]","Proliferation in % of Ba/F3_gp130 cells (10 ng/ml murine IL-6 + 200 ng/ml murine soluble IL-6R = 100%), IgG at 10 µg/ml [12] [%]","Proliferation in % of Ba/F3_gp130_muIL-6R cells (10 ng/ml murine IL-6 + 200 ng/ml murine soluble IL-6R = 100%, mixed signalling), IgG at 10 µg/ml [13] [%]","STAT3 phosphorylation in % in HEK293 cells (10 ng/ml IL-6 + 200 ng/ml sIL-6R for 30 min = 100%), IgG at 1 µg/ml [14] [%]","STAT3 phosphorylation in % in HEK293_IL-6R cells (10 ng/ml IL-6 for 30 min = 100%), IgG at 1 µg/ml [15] [%]","STAT3 phosphorylation in % in HEK293_IL-6R cells (10 ng/ml IL-6 + 200 ng/ml sIL-6R = 100%, mixed signalling), IgG at 1 µg/ml [16] [%]",Binder
69.8,91.6,1.3,2.2,38,83,–,–,–,–,–,–,–,–,–,–,–,–,–,"candidate anti-IL-6R Fab clone 09 (Fab, V domains shown) VH: EVQLVESGGDLVQPGGSLKLSCAASGFTFSNYGMSWVRQTPDKRLELVAAINSNGGSTYYPDSVKGRFTISRDNAKNTLYLQMSSLKSEDTAMYYCARDGNYVSDYWGQGTTLTVSS VL: DIVLTQSPASLAVSLGQRATISCRASESVDSYGNSFMHWYQQKPGQPPKLLIYLASNLESGVPARFSGSGSRTDFTLTIDPVEADDAATYYCQQNNEDPWTFGGGTKLEIK"
–,–,–,–,–,–,5260 ng/ml and 35 nM,4130 ng/ml and 28 nM,100,94,101,97.6,> 53,104,104,106,20,69.7,102,"anti-IL-6R IgG antibody 09 (C09 antibody, Fab chimerized with human IgG1) (antibody, V domains shown) VH: EVQLVESGGDLVQPGGSLKLSCAASGFTFSNYGMSWVRQTPDKRLELVAAINSNGGSTYYPDSVKGRFTISRDNAKNTLYLQMSSLKSEDTAMYYCARDGNYVSDYWGQGTTLTVSS VL: DIVLTQSPASLAVSLGQRATISCRASESVDSYGNSFMHWYQQKPGQPPKLLIYLASNLESGVPARFSGSGSRTDFTLTIDPVEADDAATYYCQQNNEDPWTFGGGTKLEIK"
–,–,–,–,–,–,1210 ng/ml and 8 nM,755 ng/ml and 5 nM,100,93.1,104,95.2,> 53,105,108,116,6.9,89.5,98.4,"anti-IL-6R IgG antibody 19 (C19 antibody, Fab chimerized with human IgG1) (antibody, V domains shown) VH: EVKLMESGGGLVQPGGSLKLSCAASGFTFSNYGMSWVRQTPDKRLELVAIMNSKGGSTYYPDSVMGRFTISRDNAKNTLYLQMSSLKSEDTAMYYCARDGYYTMDYWGQGTSVTVSS VL: DIVLTQSPASLAVSLGQRATISCRASKSVDSFGNSFMHWYQQKPGQSPRLLIFLASNLESGVPARFSGSGSRTDFTLTIDPVEADDAATYYCQQNNEDPYTFGGGTKLEIK"
–,–,–,–,–,–,863 ng/ml and 5.8 nM,748 ng/ml and 5 nM,94.3,92.2,94.3,87.6,> 53,102,106,114,4,97.8,99.9,"anti-IL-6R IgG antibody 12 (C12 antibody, Fab chimerized with human IgG1) (antibody, V domains shown) VH: EVKLMESGGGLVQPGGSLKLSCAASGFTFSNYGMSWVRQTPDKRLEWVANINSNGGSTYYPDSVKGRFTISRDNAQNTLYLQMSSLKSEDTAMYYCTRDGNFVSDYWGQGTTLTVSS VL: DIVLTQSPASLAVSPGQRATISCRASESVDSYGNSFMNWYQQKPGQPPKLLIYLASNLESGVPARFSGSGSRTDFTLTIDPVEADDAATYYCQQNNEDPYTFGGGTKLEIK"
–,–,–,–,–,–,531 ng/ml and 3.5 nM,304 ng/ml and 2 nM,92.6,87.6,94.7,88.6,> 53,108,86.2,114,0.2,86.9,88.1,"anti-IL-6R IgG antibody 20 (C20 antibody, Fab chimerized with human IgG1) (antibody, V domains shown) VH: EVKLMESGGGLVQPGGSLKLSCAASGFTFSNYGMSWVRQTPDKRLELVAIINSNGGSTYYPDSVKGRFTISRDNAKNTLYLQMSSLKSEDTAIYYCARDGNFVSDYWGQGTTLTVSS VL: DIVLTQSPASLAVSLGQRATISCRASESVDSYGNRFLNWYQQKPGQPPKLLIYLASNLESGVPARFSGSGSRTDFTLTIDPVEADDAATYYCQQNNEDPYTFGGGTKLEIK"
